Target: NKX2.5 homeodomain (C56S) (Homo sapiens, UniProt P52952 137-197, C193S)
Assay: crystal structure

Chain of NKX2.5 homeodomain (C56S) (P52952 137-197 C193S): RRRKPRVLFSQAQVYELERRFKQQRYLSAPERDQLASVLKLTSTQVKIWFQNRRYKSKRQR

B1: ANF-242 19-bp (dsDNA)
DNA 1: TGAAGTGGGGGCCACTTGA
DNA 2: TCAAGTGGCCCCCACTTCA
- binding result: binds

Reference: publication PMC3448007
